We go through two molecules from article PMC10404625 (The Journal of Biological Chemistry, 2023).

Common to all, as to test: MST
Assay [1] deals with three Rpc53 N-ter mutant peptides.
In another assay the target is T1, Rpc25/17 heterodimer (S. cerevisiae, UniProt P35718 1-212; P47076 1-161).
T1 sequence (looked up) 1: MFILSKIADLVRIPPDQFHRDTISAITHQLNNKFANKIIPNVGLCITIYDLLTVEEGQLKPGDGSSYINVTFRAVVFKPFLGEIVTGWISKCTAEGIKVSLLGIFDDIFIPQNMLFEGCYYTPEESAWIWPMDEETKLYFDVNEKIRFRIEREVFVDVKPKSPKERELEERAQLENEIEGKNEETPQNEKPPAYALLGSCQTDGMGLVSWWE
T1 sequence (looked up) 2: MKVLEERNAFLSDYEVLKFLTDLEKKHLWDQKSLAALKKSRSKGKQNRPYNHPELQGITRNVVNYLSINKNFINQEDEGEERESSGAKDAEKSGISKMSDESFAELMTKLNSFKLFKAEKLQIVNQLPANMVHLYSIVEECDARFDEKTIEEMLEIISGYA

Assay [2] concerns the target T2, Rpc53/37 dimerization module (Rpc53 (274–422)/Rpc37 (71–181)) (S. cerevisiae, UniProt P25441 274-422; P36121 71-181).
T2 sequence (looked up) 1: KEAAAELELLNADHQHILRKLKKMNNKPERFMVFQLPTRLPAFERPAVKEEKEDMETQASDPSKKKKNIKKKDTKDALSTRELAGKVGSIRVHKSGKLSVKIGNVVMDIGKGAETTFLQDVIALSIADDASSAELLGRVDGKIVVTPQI
T2 sequence (looked up) 2: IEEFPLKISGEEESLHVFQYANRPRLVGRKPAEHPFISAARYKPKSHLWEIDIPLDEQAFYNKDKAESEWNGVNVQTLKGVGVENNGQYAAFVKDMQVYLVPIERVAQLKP

The target of the next assay is T3, full-length Rpc37 (S. cerevisiae, UniProt P36121 1-282).
T3 sequence (looked up): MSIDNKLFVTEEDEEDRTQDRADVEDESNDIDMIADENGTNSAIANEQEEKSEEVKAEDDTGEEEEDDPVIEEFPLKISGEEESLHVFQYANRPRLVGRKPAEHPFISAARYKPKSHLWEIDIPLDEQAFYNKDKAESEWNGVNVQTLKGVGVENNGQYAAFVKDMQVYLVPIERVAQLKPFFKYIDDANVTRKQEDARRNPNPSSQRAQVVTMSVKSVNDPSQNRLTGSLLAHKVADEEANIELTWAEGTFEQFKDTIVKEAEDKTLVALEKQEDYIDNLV

The next assay deals with T4, Tfc4 N-ter (1–580) (S. cerevisiae, UniProt P33339 1-580).
T4 sequence (looked up): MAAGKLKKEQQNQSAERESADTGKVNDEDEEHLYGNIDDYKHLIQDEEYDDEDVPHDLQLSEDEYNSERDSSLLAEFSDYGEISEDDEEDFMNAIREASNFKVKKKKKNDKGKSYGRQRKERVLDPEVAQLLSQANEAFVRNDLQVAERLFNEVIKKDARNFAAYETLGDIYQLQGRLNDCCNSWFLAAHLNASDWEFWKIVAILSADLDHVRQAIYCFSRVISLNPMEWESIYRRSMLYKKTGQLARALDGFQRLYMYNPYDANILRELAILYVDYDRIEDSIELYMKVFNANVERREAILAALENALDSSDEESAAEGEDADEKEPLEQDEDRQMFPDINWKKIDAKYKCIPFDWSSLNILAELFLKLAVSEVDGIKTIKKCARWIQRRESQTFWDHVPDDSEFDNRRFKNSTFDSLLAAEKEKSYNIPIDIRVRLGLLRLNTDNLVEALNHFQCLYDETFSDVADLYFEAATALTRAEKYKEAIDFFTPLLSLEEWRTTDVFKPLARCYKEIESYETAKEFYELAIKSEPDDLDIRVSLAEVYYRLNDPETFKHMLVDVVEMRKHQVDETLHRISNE

Ends that are not written are not given here.

B1: Tfc4 N-ter (1–580) (domain or fragment)
chain: T4 sequence (looked up)
The term Kd denotes the concentration at which binding is half-saturated. The molecule B1 came in with a Kd in assay [1] of 40 to 100 nM.

B2: Rpc53 N-ter (1–57) fragment (domain or fragment, S. cerevisiae, UniProt P25441 1-57, looked up)
chain: MSSNKGNGRLPSLKDSSSNGGGSAKPSLKFKPKAVARKSKEEREAAASKVKLEEESK
modifications: also: Alexa Fluor 647 via NHS ester, position not given here
Consider B2, for which the Kd with Rpc25/17 heterodimer stood at 230 ± 170 nM; in assay [2], 1620 ± 650 nM; with full-length Rpc37, 8.2 ± 1.7 nM; with Tfc4 N-ter (1–580), 5.6 ± 1.7 nM.
